In US20240366776A1 (Hoffmann-La Roche, published 2024):
Changes are numbered by the printed parent chain.

T1: biotinylated IL-2 receptor beta gamma heterodimer Fc (IL-2RBG; Acro ILG-H5254) (UniProt P14784 27-239; P31785 23-262, biotinylated)
T1 construct: bought heterodimer
T1 sequence (looked up) 1: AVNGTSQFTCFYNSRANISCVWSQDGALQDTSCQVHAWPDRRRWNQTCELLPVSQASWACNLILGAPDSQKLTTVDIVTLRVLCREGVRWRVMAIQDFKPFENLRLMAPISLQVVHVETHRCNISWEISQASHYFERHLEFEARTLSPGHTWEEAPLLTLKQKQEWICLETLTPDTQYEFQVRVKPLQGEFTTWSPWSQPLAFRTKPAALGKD
T1 sequence (looked up) 2: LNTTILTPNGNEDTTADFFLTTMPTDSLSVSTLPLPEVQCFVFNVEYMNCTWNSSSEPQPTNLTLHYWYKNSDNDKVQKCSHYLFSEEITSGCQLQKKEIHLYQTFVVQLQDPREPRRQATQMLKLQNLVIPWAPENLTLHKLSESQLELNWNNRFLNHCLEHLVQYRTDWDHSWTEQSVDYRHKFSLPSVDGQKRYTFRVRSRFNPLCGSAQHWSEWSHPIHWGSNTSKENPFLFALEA

B1: AF003232 (other)
heavy 1: APASSSTKKTQLQLEHLLLDLQMILNGINNYKNPKLTRMLTAKFAMPKKATELKHLQCLEEELKPLEEVLNGAQSKNFHLRPRDLISNINVIVLELKGSETTFMCEYADETATIVEFLNRWITFAQSIISTLTGGGGSGGGGSGGGGSGGGGSQVQLVQSGAEVKKPGASVKVSCKASGDTFTRHYVHWVRQAPGQGLEWMGIINPSGGYASYAQKFQGRVTMTRDTSTSTVYMELSSLRSEDTAVYYCAAGLFIWGQGTLVTVSSAKTTAPSVYPLAPVCGDTTGSSVTLGCLVKGYFPEPVTLTWNSGSLSSGVHTFPAVLQSDLYTLSSSVTVTSSTWPSQSITCNVAHPASSTKVDKKIEPRGPTIKPCPPCKCPAPNAAGGPSVFIFPPKIKDVLMISLSPIVTCVVVDVSEDDPDVQISWFVNNVEVHTAQTQTHREDYNSTLRVVSALPIQHQDWMSGKEFKCKVNNKDLGAPIERTISKPKGSVRAPQVYVLPPPEEEMTKKQVTLTCMVTDFMPEDIYVEWTNNGKTELNYKNTEPVLDSDGSYFMYSDLRVEKKNWVERNSYSCSVVHEGLHNHHTTESFSRTPGK
heavy 2: QVQLVQSGAEVKKPGASVKVSCKASGDTFTRHYVHWVRQAPGQGLEWMGIINPSGGYASYAQKFQGRVTMTRDTSTSTVYMELSSLRSEDTAVYYCAAGLFIWGQGTLVTVSSAKTTAPSVYPLAPVCGDTTGSSVTLGCLVKGYFPEPVTLTWNSGSLSSGVHTFPAVLQSDLYTLSSSVTVTSSTWPSQSITCNVAHPASSTKVDKKIEPRGPTIKPCPPCKCPAPNAAGGPSVFIFPPKIKDVLMISLSPIVTCVVVDVSEDDPDVQISWFVNNVEVHTAQTQTHREDYNSTLRVVSALPIQHQDWMSGKEFKCKVNNKDLGAPIERTISKPKGSVRAPQVYVLPPPEKEMTKKQVSLTCLVKDFMPEDIYVEWTNNGKTELNYKNTEPVLKSDGSYFMYSKLTVEKKNWVERNSYSCSVVHEGLHNHHTTKSFSRTPGGGGSGGGSHHHHHH
light: DIQMTQSPSSLSASVGDRVTITCRASQSIGRWLAWYQQKPGKAPKLLIYSASNLETGVPSRFSGSGSGTDFTLTISSLQPEDFATYYCQQYESFPVTFGPGTKVDIKRADAAPTVSIFPPSSEQLTSGGASVVCFLNNFYPKDINVKWKIDGSERQNGVLNSWTDQDSKDSTYSMSSTLTLTKDEYERHNSYTCEATHKTSTSPIVKSFNRNEC
notes: also called AF3232
B2: AF003945 (other)
heavy 1: B1 heavy 1 with H185Y
heavy 2: B1 heavy 2 with H32Y
light: B1 light with R31S, E92N
notes: also called AF3945
B3: AF003740 (other)
heavy 1: B1 heavy 1 with H185Y
heavy 2: QVQLVQSGAEVKKPGASVKVSCKASGDTFTRYYVHWVRQAPGQGLEWMGIINPSGGYASYAQKFQGRVTMTRDTSTSTVYMELSSLRSEDTAVYYCAAGLFIWGQGTLVTVSSAKTTAPSVYPLAPVCGDTTGSSVTLGCLVKGYFPEPVTLTWNSGSLSSGVHTFPAVLQSDLYTLSSSVTVTSSTWPSQSITCNVAHPASSTKVDKKIEPRGPTIKPCPPCKCPAPNAAGGPSVFIFPPKIKDVLMISLSPIVTCVVVDVSEDDPDVQISWFVNNVEVHTAQTQTHREDYNSTLRVVSALPIQHQDWMSGKEFKCKVNNKDLGAPIERTISKPKGSVRAPQVYVLPPPEKEMTKKQVSLTCLVKDFMPEDIYVEWTNNGKTELNYKNTEPVLKSDGSYFMYSKLTVEKKNWVERNSYSCSVVHEGLHNHHTTKSFSRTPGK
light: B1 light with E92N
notes: also called AF3740
B4: AF003747 (other)
heavy 1: B1 heavy 1 with H185Y
heavy 2: B3 heavy 2
light: B1 light with W32Y, E92N
notes: also called AF3747
B5: AF003749 (other)
heavy 1: B1 heavy 1 with H185Y
heavy 2: B3 heavy 2
light: B1 light with W32Y, S50Y, E92N
notes: also called AF3749
B6: AF003753 (other)
heavy 1: B1 heavy 1 with H185Y
heavy 2: B3 heavy 2
light: B1 light
notes: also called AF3753
B7: AF003951 (other)
heavy 1: APASSSTKKTQLQLEHLLLDLQMILNGINNYKNPKLTRMLTAKFAMPKKATELKHLQCLEEELKPLEEVLNGAQSKNFHLRPRDLISNINVIVLELKGSETTFMCEYADETATIVEFLNRWITFAQSIISTLTGGGGSGGGGSGGGGSGGGGSQVQLVQSGAEVKKPGASVKVSCKASGYTFTDYYMHWVRQAPGQGLEWMGIINPRAGYTSYALKFQGRVTMTRDTSTSTVYMELSSLRSEDTAVYYCTSGWDVWGQGTLVTVSSAKTTAPSVYPLAPVCGDTTGSSVTLGCLVKGYFPEPVTLTWNSGSLSSGVHTFPAVLQSDLYTLSSSVTVTSSTWPSQSITCNVAHPASSTKVDKKIEPRGPTIKPCPPCKCPAPNAAGGPSVFIFPPKIKDVLMISLSPIVTCVVVDVSEDDPDVQISWFVNNVEVHTAQTQTHREDYNSTLRVVSALPIQHQDWMSGKEFKCKVNNKDLGAPIERTISKPKGSVRAPQVYVLPPPEEEMTKKQVTLTCMVTDFMPEDIYVEWTNNGKTELNYKNTEPVLDSDGSYFMYSDLRVEKKNWVERNSYSCSVVHEGLHNHHTTESFSRTPGK
heavy 2: QVQLVQSGAEVKKPGASVKVSCKASGYTFTDYYMHWVRQAPGQGLEWMGIINPRAGYTSYALKFQGRVTMTRDTSTSTVYMELSSLRSEDTAVYYCTSGWDVWGQGTLVTVSSAKTTAPSVYPLAPVCGDTTGSSVTLGCLVKGYFPEPVTLTWNSGSLSSGVHTFPAVLQSDLYTLSSSVTVTSSTWPSQSITCNVAHPASSTKVDKKIEPRGPTIKPCPPCKCPAPNAAGGPSVFIFPPKIKDVLMISLSPIVTCVVVDVSEDDPDVQISWFVNNVEVHTAQTQTHREDYNSTLRVVSALPIQHQDWMSGKEFKCKVNNKDLGAPIERTISKPKGSVRAPQVYVLPPPEKEMTKKQVSLTCLVKDFMPEDIYVEWTNNGKTELNYKNTEPVLKSDGSYFMYSKLTVEKKNWVERNSYSCSVVHEGLHNHHTTKSFSRTPGGGGSGGGSHHHHHH
light: B1 light with G30S, R31T, S50A, N53S, E55D, T56S, Y91S, E92Y, P100Q, D105E
notes: also called AF3951
B8: AF003952 (other)
heavy 1: B7 heavy 1 with D184R
heavy 2: B7 heavy 2 with D31R
light: B1 light with G30S, R31T, S50A, N53S, E55D, T56S, Y91S, E92Y, P100Q, D105E
notes: also called AF3952
B9: AF003953 (other)
heavy 1: B7 heavy 1 with D184T
heavy 2: B7 heavy 2 with D31T
light: B1 light with G30S, R31T, S50A, N53S, E55D, T56S, Y91S, E92Y, P100Q, D105E
notes: also called AF3953
B10: AF003956 (other)
heavy 1: B7 heavy 1
heavy 2: B7 heavy 2
light: DIQMTQSPSSLSASVGDRVTITCRASQSISTWLAWYQQKPGKAPKLLIYAASSLDSGVPSRFSGSGSGTDFTLTISSLQPEDFATYYCQQSYRFPVTFGQGTKVEIKRADAAPTVSIFPPSSEQLTSGGASVVCFLNNFYPKDINVKWKIDGSERQNGVLNSWTDQDSKDSTYSMSSTLTLTKDEYERHNSYTCEATHKTSTSPIVKSFNRNEC
notes: also called AF3956

What follows are binders tested against T1, biotinylated IL-2 receptor beta gamma … (assay: ELISA, captured complex, biotin-IL-2RBG 10 nM, PD-1 Fc titrated).
Method: The DBA-cytokine complexes and control antibody-cytokine complexes were produced in two formats: (1) “Symmetric” immunocytokine (shown in FIG. 2E); or (2) “Asymmetric” immunocytokine (shown in FIG. 2B) by expression in mammalian cells and purified using standard protocols. […] To perform the assay, 384-well ELISA plates were coated with anti-Fc antibody at 1 micrograms/ml in 100 mM bicarbonate solution pH 9.0 overnight at 4° C. and washed twice with SUPERBLOCK™. Antibody-cytokine complexes were then added to each well at a constant concentration of 6 nM and allowed to incubate for 1 hour and washed three times in PBS plus 0.05% TWEEN® 20 (PBST). Titrated concentrations of PD-1 Fc or an IgG1 control Fc were added and allowed to incubate for 15 minutes before the addition of a constant amount of biotinylated IL-2RBG at 10 nM. The plates were incubated for an additional 30 minutes, washed and biotinylated IL-2RBG detection was performed using streptavidin-HRP and standard ELISA protocols.

| Binder | binding result |
| --- | --- |
| B1 | binds |
| B2 | binds |
| B3 | binds |
| B4 | binds |
| B5 | binds |
| B6 | binds |
| B7 | binds |
| B8 | binds |
| B9 | binds |
| B10 | binds |
